B1: KD52 (SHOX G-rich strand) (structured_DNA)
DNA: GGAGGTTTCCGGGGGCGCGGGGCGGAGC
B2: KD53 (C-rich reverse complement of KD52) (ssDNA)
DNA: GCTCCGCCCCGCGCCCCCGGAAACCTCC

Biological target: Nucleolin 284-710 (UniProt P19338 284-710)
Assay: EMSA; 100 mM KCl; EMSA: oligo folded in binding buffer (composition not given) + 100 mM KCl, 37 C 1 h; nucleolin 100 ng, 4 C 2 h, 8% native gel + 100 mM KCl at 4 C; BG4 37 C 30 min, 6% native gel + 100 mM KCl at RT; CD: 1x PBS + 100 mM KCl
Conditions: protein: recombinant, tags: His, label: 5'-32P (EMSA)

Sequence of Nucleolin 284-710 (P19338 284-710): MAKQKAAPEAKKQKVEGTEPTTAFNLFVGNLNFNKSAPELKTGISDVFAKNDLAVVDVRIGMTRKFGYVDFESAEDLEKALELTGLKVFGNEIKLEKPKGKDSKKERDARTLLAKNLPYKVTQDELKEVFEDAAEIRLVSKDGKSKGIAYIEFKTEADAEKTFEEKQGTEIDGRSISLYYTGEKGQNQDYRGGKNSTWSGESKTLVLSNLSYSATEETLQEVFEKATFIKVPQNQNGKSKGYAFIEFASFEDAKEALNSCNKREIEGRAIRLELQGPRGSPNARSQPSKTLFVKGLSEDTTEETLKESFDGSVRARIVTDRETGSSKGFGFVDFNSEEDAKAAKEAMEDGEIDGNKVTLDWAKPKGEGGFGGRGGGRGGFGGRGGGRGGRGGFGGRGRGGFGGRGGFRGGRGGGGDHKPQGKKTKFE

Binder | binding result (intramolecular parallel G4, two G stretches plus GNG motifs) | binding result (single strand)
B1 | binds | –
B2 | – | no binding

Source: publication PMC4945072, “GNG Motifs Can Replace a GGG Stretch during G-Quadruplex Formation in a Context Dependent Manner”
